Here are results for 4 molecules from US20240076389A1 (NATIONAL RESEARCH COUNCIL OF CANADA, published 2024).

Assay [1] addresses T1, human AXL expressed on the cell surface of tumor cell lines (human, UniProt P30530 26-894).
T1 construct: whole, on cells; also called cell surface-expressed AXL; cell-based AXL
T1 sequence (looked up): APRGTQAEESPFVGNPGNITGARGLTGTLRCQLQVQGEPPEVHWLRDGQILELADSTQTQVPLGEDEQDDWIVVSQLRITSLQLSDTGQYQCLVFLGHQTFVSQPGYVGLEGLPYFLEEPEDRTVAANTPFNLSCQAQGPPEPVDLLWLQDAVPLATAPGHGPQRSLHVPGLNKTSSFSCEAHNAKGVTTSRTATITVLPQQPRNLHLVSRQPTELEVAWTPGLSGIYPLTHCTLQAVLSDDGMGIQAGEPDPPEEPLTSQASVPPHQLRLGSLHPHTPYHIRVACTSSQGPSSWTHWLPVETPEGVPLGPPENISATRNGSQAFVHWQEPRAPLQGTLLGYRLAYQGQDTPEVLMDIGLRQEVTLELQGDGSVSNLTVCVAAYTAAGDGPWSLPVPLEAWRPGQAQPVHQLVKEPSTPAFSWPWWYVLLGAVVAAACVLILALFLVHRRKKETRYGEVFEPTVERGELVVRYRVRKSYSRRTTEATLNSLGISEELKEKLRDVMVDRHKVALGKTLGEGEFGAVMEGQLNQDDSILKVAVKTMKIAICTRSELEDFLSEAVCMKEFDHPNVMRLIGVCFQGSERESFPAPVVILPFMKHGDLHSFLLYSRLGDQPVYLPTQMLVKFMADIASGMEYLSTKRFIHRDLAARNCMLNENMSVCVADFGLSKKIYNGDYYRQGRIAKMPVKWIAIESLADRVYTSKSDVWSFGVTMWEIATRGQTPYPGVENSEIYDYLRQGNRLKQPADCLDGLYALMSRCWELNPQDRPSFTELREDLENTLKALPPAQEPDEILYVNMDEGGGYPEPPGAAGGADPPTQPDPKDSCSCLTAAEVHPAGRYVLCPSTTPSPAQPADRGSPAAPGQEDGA
Put plainly: FACS on SKOV3 cells, apparent Kd, human Fc format. As for the experimental part: (§1) FACS binding assay. Adherent cells were dissociated with non-enzymatic Sigma Cell Dissociation Solution (Cat. No. C5789). Cells suspensions were added to polypropylene, V-bottom 96-well plates and incubated for 2 hours on ice with primary antibodies at concentrations ranging from 100 nM to 0.001 nM or at a single dose of 100 nM (for the non-specific control). After incubation and washes, cells were incubated with fluorescently labeled secondary antibody (Alexa Fluor® 488 anti-human IgG from Jackson Cat. No 709-546-098) for 1 hour on ice, then washed. Cell viability was determined using Fixable viability dye 450 (20 min on ice). Stained cells were fixed in 1% formaldehyde at 4° C. and stored at 4° C. until acquisition which was performed the next day.
(§2) Binding of recombinant chimeric Abs to three cell lines was assessed by FACS as described above. The apparent Bmax and Kd determination is shown below in Table 14.

Assay [2] has as its target T2, mouse AXL extracellular domain (Sino cat. 51026-M08H) (mouse, UniProt Q00993 19-445).
T2 construct: extracellular domain; Bought protein; also called mouse AXL ECD
T2 sequence (looked up): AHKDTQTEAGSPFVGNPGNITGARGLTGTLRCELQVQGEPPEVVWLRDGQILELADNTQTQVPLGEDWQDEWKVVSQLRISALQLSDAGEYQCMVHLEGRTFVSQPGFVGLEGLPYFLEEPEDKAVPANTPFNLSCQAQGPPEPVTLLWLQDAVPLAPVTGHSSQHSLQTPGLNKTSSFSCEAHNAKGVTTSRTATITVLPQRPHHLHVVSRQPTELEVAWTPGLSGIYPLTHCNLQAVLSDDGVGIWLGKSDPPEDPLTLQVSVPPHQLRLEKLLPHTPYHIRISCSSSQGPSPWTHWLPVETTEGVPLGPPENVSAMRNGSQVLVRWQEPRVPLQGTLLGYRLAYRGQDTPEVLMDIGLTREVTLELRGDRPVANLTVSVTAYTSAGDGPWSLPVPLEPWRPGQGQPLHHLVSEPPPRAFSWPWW
Put plainly: ELISA on coated mouse AXL ECD (100 ng/well), VHH-Fc. As for the experimental part:
(§3) ELISA. ELISAs against human, cyno and mouse AXL ECDs were conducted by immobilizing 100 ng of each protein in wells of Nunc MaxiSorp microplates overnight. Human AXL (aa 1-451) and cyno AXL (aa 1-449) were produced recombinantly as described in Example 10. Mouse AXL was purchased from Sino (cat. 51026-M08H). The next day, plates were blocked with 5% (w/v) dried milk in PBS. Murine mAbs (either hybridoma- or recombinantly-produced) or VHH-Fcs were diluted in PBS containing 1% BSA and 0.1% Tween-20 and added to wells for 2 hours at room temperature. Wells were washed 5× with PBS containing 0.1% Tween-20, then HRP-labeled protein A (diluted 1:1000 in PBS containing 1% BSA and 0.1% Tween™-20) was added to wells for 1 hour at room temperature. Wells were washed again 5× with PBS/0.1% Tween-20 and developed using TMB substrate. Absorbance was measured at 450 nm. As a positive control for mouse AXL binding, a commercial anti-mouse AXL mAb (clone 175128, R&D Systems MAB8541, rat IgG2A) was used and detected with donkey […] secondary antibody.

Assay [3] addresses T1, human AXL expressed on the cell surface …. The assay is described as follows: FACS on NCI-H292 cells, apparent Kd, human Fc format. As for the experimental part:
as §1, §2

Assay [4] concerns the target T3, recombinant human AXL extracellular domain, C-terminally His8-tagged (rhAXL-ECD) (human, UniProt P30530 26-451).
T3 construct: Made in CHO cells; also called (rh)AXL-ECD His8; human AXL ECD
T3 sequence: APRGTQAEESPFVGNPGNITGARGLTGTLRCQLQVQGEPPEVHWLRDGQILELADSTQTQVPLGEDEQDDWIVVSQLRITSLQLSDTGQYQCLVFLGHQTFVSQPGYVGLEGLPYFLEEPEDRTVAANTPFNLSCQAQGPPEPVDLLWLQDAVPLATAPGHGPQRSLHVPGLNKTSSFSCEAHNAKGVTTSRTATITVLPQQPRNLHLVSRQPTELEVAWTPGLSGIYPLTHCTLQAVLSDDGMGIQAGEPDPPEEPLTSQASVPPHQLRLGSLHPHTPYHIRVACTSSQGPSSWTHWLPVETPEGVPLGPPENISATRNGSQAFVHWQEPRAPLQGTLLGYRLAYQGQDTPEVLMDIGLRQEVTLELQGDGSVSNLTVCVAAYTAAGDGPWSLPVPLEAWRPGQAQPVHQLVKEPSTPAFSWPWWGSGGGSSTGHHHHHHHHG
Put plainly: SPR, VHH-Fc captured, AXL ECD flowed, single-cycle kinetics. As for the experimental part: (§4) For VH Hs and VHH-Fcs, binding to human and cynomolgus AXL ECD was assessed using either a Biacore T200 instrument or a Biacore 3000 instrument. Either human AXL ECD or anti-human Fc antibody was immobilized on a research-grade CM5 series S sensor chip (T200, rhAXL ECD) or a C1 sensor chip (3000, anti-human Fc) using amine coupling in acetate buffer. VHH-Fcs were captured on anti-human Fc surfaces. Either monomeric VHHs (for rhAXL ECD surfaces) or human and cyno AXL ECD (for VHH-Fc surfaces) were flowed over the surfaces at different concentration ranges. Running buffers were HBS-EP (3000) and HBS-EP+(T200). Flow rates were 10-40 ul/min. All binding studies were performed at 25° C. Surfaces were regenerated using 10 mM glycine, pH 1.5.

Assay [5] concerns the target T3, recombinant human AXL extracellular …. The assay is described as follows: ELISA on coated AXL ECD (100 ng/well), VHH-Fc, HRP-protein A. As for the experimental part:
as §3
(In general: An ELISA detects its analyte on a solid surface through an enzyme-linked reagent.)

Assay [6] deals with T1, human AXL expressed on the cell surface …. Put plainly: FACS on MDA-MB-231 luciferase cells, apparent Kd, human Fc format. As for the experimental part: as §1, §2
Assay [7] has as its target T3, recombinant human AXL extracellular …. Put plainly: SPR, VHH-Fc captured, AXL ECD flowed, single-concentration kinetics (estimate). As for the experimental part:
as §4

The target of assay [8] is T1, human AXL expressed on the cell surface …. Put plainly: cell-based or functional assay.
The target is the same in assay [9]. Put plainly: cell-based or functional assay. The source holds these as a separate data set.
For assay [10], the target named is T4, cyAXL-ECD displayed on yeast.
T4 construct: extracellular domain; 'cy' read as cynomolgus
Put plainly: yeast surface display ELISA, non-denatured yeast, goat anti-human F(ab')2-HRP.

The target of assay [11] is T5, huMER-ECD displayed on yeast (human, UniProt Q12866 21-505).
T5 construct: extracellular domain
T5 sequence (looked up): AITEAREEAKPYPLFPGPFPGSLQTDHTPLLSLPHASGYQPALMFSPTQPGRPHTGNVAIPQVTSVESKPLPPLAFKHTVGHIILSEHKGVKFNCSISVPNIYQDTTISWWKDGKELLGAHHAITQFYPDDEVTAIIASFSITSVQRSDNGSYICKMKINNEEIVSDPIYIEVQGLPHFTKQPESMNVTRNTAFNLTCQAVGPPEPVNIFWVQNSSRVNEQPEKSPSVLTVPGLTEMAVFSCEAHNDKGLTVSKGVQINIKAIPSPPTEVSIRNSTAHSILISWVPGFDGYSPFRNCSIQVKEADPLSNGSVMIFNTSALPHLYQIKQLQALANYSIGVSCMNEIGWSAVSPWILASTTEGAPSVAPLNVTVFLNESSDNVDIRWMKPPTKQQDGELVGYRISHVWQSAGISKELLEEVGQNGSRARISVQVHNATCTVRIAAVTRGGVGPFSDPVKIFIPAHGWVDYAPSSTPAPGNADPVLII
The assay is described as above.

B1: NRC-sdAb008-Fc (VHH-human IgG1 Fc fusion) (Fc fusion)
chain: QVKLEESGGGLVQAGGSLRLSCAASGSSGMINTMGWYRQAPGKQRELVARRSTGGTTNYADSVKGRFTISRDDANNTVYLQMNSLKPEDTAVYYCAIIWRTSDLTGRFNTWGQGTQVTVSS
notes: VHH fused N-terminally to human IgG1 Fc; also called NRC-sdAb008-hIgG1; not shown: human IgG1 Fc
Broadly, the koff is the first-order rate constant of dissociation. As a reminder, the kon is the second-order rate constant of association. Broadly, the EC50 is the concentration at which the effect is half-maximal. Regarding B1, the Kd in assay [1] was 0.0549 nM; in assay [3], 0.0414 nM; in assay [4] it was 1 nM; in assay [6] it was 0.122 nM; in assay [7], 2 nM. In assay [2], the binding result is on record as “no binding”. Moreover, the koff is 0.0033 s⁻¹ in [4] and 0.0082 s⁻¹ in [7]. In addition, the results for the on-rate constant (kon) in [4] and in [7] were 3.3e+06 M⁻¹ s⁻¹ and 5.3e+06 M⁻¹ s⁻¹, respectively. In addition, the half-maximal effective concentration (EC50) in [5] was found to be 1 nM.

B2: hFc-F107-10G1-DM1 (antibody, human IgG1, kappa, V domains shown)
VH: EVNLVESGGGVVKPGASLKLSCEASGFTFSNYGMSWVRQTSDKRLEWVASISGGGGRTYYLDNVKGRFIISRENAKNTLYLQMSSLKSEDTALFYCARGARASYFAMDYWGQGSSVTVSS
VL: VIVMTQSHKFMSTSVGDRVSITCKASQDVTTAVAWYQQKPGQSPKLLIYWASTRHTGVPDRFTGSGSGTDYSLTISNVQTEDLAFYYCQQHFTTPLTFGAGTKLELKR
modifications: DM1 through SMCC linker on lysine residues; sites not given
B2: in [8], the “IC50 of growth inhibition (CellTiterGlo, 5 days) of NCI-H292 cells, -Gas6” value was determined as 0.013 nM and the “IC50 of growth inhibition of NCI-H292 cells, +Gas6 (2 µg/mL)” value was 0.46 nM. Besides, the “IC50 (read off the curve), growth inhibition of H292 cells, without added Gas6 (circles)” value in [9] is ~0.004 nM.

B3: NRC-sdAb002-Fc (VHH-human IgG1 Fc fusion) (Fc fusion)
chain: QVQLVDSGGGLVQAGGSLRLSCATSTRTVSSAVMAWFRQAPEKVRDFVGFITNSGNILYDDSVKGRFTISRDNAQNTVYLQMNSLKPEDTAVYYCAAKWSFSSGYGDLRRAAMYDYWGQGTQVTVSS
notes: VHH fused N-terminally to human IgG1 Fc; also called NRC-sdAb0002-Fc; NRC-sdAb002-hIgG1; not shown: human IgG1 Fc
Take B3: the “yeast ELISA signal normalized to myc expression level” value came out at 0.76 in assay [10] and 0.01 in assay [11].

B4: hFc-F111-5E9-DM1 (antibody, human IgG1, kappa, V domains shown)
VH: QIQLVQSGPELKKPGETVKISCKASGYTFTKYGMNWVKQAPGKGLKWMGWINTYTGEPTYADDFKGRFAFSLETSASTAYLQINNLTTEDMVTYFCAKGGYYSNPIYPMDYWGQGTSVTVSS
VL: DIQMTQTTSSLSASLGDRVTISCRASQDINNYLNWYQQKPDGTVKLLIYYISRLHSGVPSRFSGSGSGTDYSLTISNLELEDVATYFCQQGNTLPFTFGSGTKLEIKR
modifications: DM1 through SMCC linker on lysine residues; sites not given
On to B4, for which, in assay [8], the “IC50 of growth inhibition (CellTiterGlo, 5 days) of NCI-H292 cells, -Gas6” value amounted to 0.084 nM and the “IC50 of growth inhibition of NCI-H292 cells, +Gas6 (2 µg/mL)” value turned out to be 0.074 nM. In assay [9], the “IC50 (read off the curve), growth inhibition of H292 cells, with added Gas6 (squares)” value is ~0.04 nM and the “IC50 (read off the curve), growth inhibition of H292 cells, without added Gas6 (circles)” value is ~0.04 nM.
